Assay results: patent publication US20240270846A1 (published 2024)
Substitutions are numbered along the chain they refer to. Numbers in names are those of the source.

B1: CE115HA000 Q50E one-arm antibody (antibody, human IgG1, kappa, L234A L235A, N297A, name in Kabat numbering)
heavy: QVQLVESGGGVVQPGRSLRLSCAASGFTFSNAWMHWVRQAPGKGLEWVAEIKAKSNNYATYYAESVKGRFTISRDDSKNSLYLQMNSLKTEDTAVYYCRYVHYGAYYGVDAWGQGTTVTVSSASTKGPSVFPLAPSSKSTSGGTAALGCLVKDYFPEPVTVSWNSGALTSGVHTFPAVLQSSGLYSLSSVVTVPSSSLGTQTYICNVNHKPSNTKVDKKVEPKSCDKTHTCPPCPAPEAAGGPSVFLFPPKPKDTLMISRTPEVTCVVVDVSHEDPEVKFNWYVDGVEVHNAKTKPREEQYASTYRVVSVLTVLHQDWLNGKEYKCKVSNKALPAPIEKTISKAKGQPREPQVYTLPPSRCELTKNQVSLSCAVKGFYPSDIAVEWESNGQPENNYKTTPPVLDSDGSFFLVSKLTVDKSRWQQGNVFSCSVMHEALHNHYTQKSLSLSPDYKDDDDK
chain: EPKSSDKTHTCPPCPAPELLGGPSVFLFPPKPKDTLMISRTPEVTCVVVDVSHEDPEVKFNWYVDGVEVHNAKTKPREEQYNSTYRVVSVLTVLHQDWLNGKEYKCKVSNKALPAPIEKTISKAKGQPREPQVCTLPPSRDELTKNQVSLWCLVKGFYPSDIAVEWESNGQPENNYKTTPPVLDSDGSFFLYSKLTVDKSRWQQGNVFSCSVMHEALHNRYTQKSLSLSP
light: DIVMTQSPLSLPVTPGEPASISCRSSQSLVHSNRNTYLHWYQQKPGQAPRLLIYKVSNRFSGVPDRFSGSGSGTDFTLKISRVEAEDVGVYYCGQGTQVPYTFGQGTKLEIKRTVAAPSVFIFPPSDEQLKSGTASVVCLLNNFYPREAKVQWKVDNALQSGNSQESVTEQDSKDSTYSLSSTLTLSKADYEKHKVYACEVTHQGLSSPVTKSFNRGEC
notes: one-arm antibody
B2: CE115HA000 Q50I one-arm antibody (antibody, human IgG1, kappa, L234A L235A, N297A, name in Kabat numbering)
heavy: B1 heavy with E50I
chain: B1 chain
light: B1 light
notes: one-arm antibody
B3: CE115HA000 Q50K one-arm antibody (antibody, human IgG1, kappa, L234A L235A, N297A, name in Kabat numbering)
heavy: B1 heavy with E50K
chain: B1 chain
light: B1 light
notes: one-arm antibody
B4: CE115HA000 Q50L one-arm antibody (antibody, human IgG1, kappa, L234A L235A, N297A, name in Kabat numbering)
heavy: B1 heavy with E50L
chain: B1 chain
light: B1 light
notes: one-arm antibody
B5: CE115HA000 Q50S one-arm antibody (antibody, human IgG1, kappa, L234A L235A, N297A, name in Kabat numbering)
heavy: B1 heavy with E50S
chain: B1 chain
light: B1 light
notes: one-arm antibody
B6: CE115HA000 Q50Y one-arm antibody (antibody, human IgG1, kappa, L234A L235A, N297A, name in Kabat numbering)
heavy: B1 heavy with E50Y
chain: B1 chain
light: B1 light
notes: one-arm antibody
B7: CE115HA000 R16E one-arm antibody (antibody, human IgG1, kappa, L234A L235A, N297A, name in Kabat numbering)
heavy: B1 heavy with R16E, E50Q
chain: B1 chain
light: B1 light
notes: one-arm antibody
B8: CE115HA000 R16Q one-arm antibody (antibody, human IgG1, kappa, L234A L235A, N297A, name in Kabat numbering)
heavy: B1 heavy with R16Q, E50Q
chain: B1 chain
light: B1 light
notes: one-arm antibody
B9: CE115HA000 R19T one-arm antibody (antibody, human IgG1, kappa, L234A L235A, N297A, name in Kabat numbering)
heavy: B1 heavy with R19T, E50Q
chain: B1 chain
light: B1 light
notes: one-arm antibody
B10: CE115HA000 S30D one-arm antibody (antibody, human IgG1, kappa, L234A L235A, N297A, name in Kabat numbering)
heavy: B1 heavy with S30D, E50Q
chain: B1 chain
light: B1 light
notes: one-arm antibody
B11: CE115HA000 S30G one-arm antibody (antibody, human IgG1, kappa, L234A L235A, N297A, name in Kabat numbering)
heavy: B1 heavy with S30G, E50Q
chain: B1 chain
light: B1 light
notes: one-arm antibody
B12: CE115HA000 S52cA one-arm antibody (antibody, human IgG1, kappa, L234A L235A, N297A, name in Kabat numbering)
heavy: B1 heavy with E50Q, S55A
chain: B1 chain
light: B1 light
notes: one-arm antibody
B13: CE115HA000 S52cD one-arm antibody (antibody, human IgG1, kappa, L234A L235A, N297A, name in Kabat numbering)
heavy: B1 heavy with E50Q, S55D
chain: B1 chain
light: B1 light
notes: one-arm antibody
B14: CE115HA000 S52cF one-arm antibody (antibody, human IgG1, kappa, L234A L235A, N297A, name in Kabat numbering)
heavy: B1 heavy with E50Q, S55F
chain: B1 chain
light: B1 light
notes: one-arm antibody
B15: CE115HA000 S52cG one-arm antibody (antibody, human IgG1, kappa, L234A L235A, N297A, name in Kabat numbering)
heavy: B1 heavy with E50Q, S55G
chain: B1 chain
light: B1 light
notes: one-arm antibody
B16: CE115HA000 S52cK one-arm antibody (antibody, human IgG1, kappa, L234A L235A, N297A, name in Kabat numbering)
heavy: B1 heavy with E50Q, S55K
chain: B1 chain
light: B1 light
notes: one-arm antibody
B17: CE115HA000 S52cL one-arm antibody (antibody, human IgG1, kappa, L234A L235A, N297A, name in Kabat numbering)
heavy: B1 heavy with E50Q, S55L
chain: B1 chain
light: B1 light
notes: one-arm antibody
B18: CE115HA000 S52cQ one-arm antibody (antibody, human IgG1, kappa, L234A L235A, N297A, name in Kabat numbering)
heavy: B1 heavy with E50Q, S55Q
chain: B1 chain
light: B1 light
notes: one-arm antibody
B19: CE115HA000 S52cV one-arm antibody (antibody, human IgG1, kappa, L234A L235A, N297A, name in Kabat numbering)
heavy: B1 heavy with E50Q, S55V
chain: B1 chain
light: B1 light
notes: one-arm antibody
B20: CE115HA000 S52cY one-arm antibody (antibody, human IgG1, kappa, L234A L235A, N297A, name in Kabat numbering)
heavy: B1 heavy with E50Q, S55Y
chain: B1 chain
light: B1 light
notes: one-arm antibody
B21: CE115HA000 S62D one-arm antibody (antibody, human IgG1, kappa, L234A L235A, N297A, name in Kabat numbering)
heavy: B1 heavy with E50Q, S65D
chain: B1 chain
light: B1 light
notes: one-arm antibody
B22: CE115HA000 S62E one-arm antibody (antibody, human IgG1, kappa, L234A L235A, N297A, name in Kabat numbering)
heavy: B1 heavy with E50Q, S65E
chain: B1 chain
light: B1 light
notes: one-arm antibody
B23: CE115HA000 S62K one-arm antibody (antibody, human IgG1, kappa, L234A L235A, N297A, name in Kabat numbering)
heavy: B1 heavy with E50Q, S65K
chain: B1 chain
light: B1 light
notes: one-arm antibody
B24: CE115HA000 S74A one-arm antibody (antibody, human IgG1, kappa, L234A L235A, N297A, name in Kabat numbering)
heavy: B1 heavy with E50Q, S77A
chain: B1 chain
light: B1 light
notes: one-arm antibody
B25: CE115HA000 T28D one-arm antibody (antibody, human IgG1, kappa, L234A L235A, N297A, name in Kabat numbering)
heavy: B1 heavy with T28D, E50Q
chain: B1 chain
light: B1 light
notes: one-arm antibody
B26: CE115HA000 T28S one-arm antibody (antibody, human IgG1, kappa, L234A L235A, N297A, name in Kabat numbering)
heavy: B1 heavy with T28S, E50Q
chain: B1 chain
light: B1 light
notes: one-arm antibody
B27: CE115HA000 T57A one-arm antibody (antibody, human IgG1, kappa, L234A L235A, N297A, name in Kabat numbering)
heavy: B1 heavy with E50Q, T60A
chain: B1 chain
light: B1 light
notes: one-arm antibody
B28: CE115HA000 T57I one-arm antibody (antibody, human IgG1, kappa, L234A L235A, N297A, name in Kabat numbering)
heavy: B1 heavy with E50Q, T60I
chain: B1 chain
light: B1 light
notes: one-arm antibody
B29: CE115HA000 T57K one-arm antibody (antibody, human IgG1, kappa, L234A L235A, N297A, name in Kabat numbering)
heavy: B1 heavy with E50Q, T60K
chain: B1 chain
light: B1 light
notes: one-arm antibody
B30: CE115HA000 V11L one-arm antibody (antibody, human IgG1, kappa, L234A L235A, N297A, name in Kabat numbering)
heavy: B1 heavy with V11L, E50Q
chain: B1 chain
light: B1 light
notes: one-arm antibody
B31: CE115HA000 W33A one-arm antibody (antibody, human IgG1, kappa, L234A L235A, N297A, name in Kabat numbering)
heavy: B1 heavy with W33A, E50Q
chain: B1 chain
light: B1 light
notes: one-arm antibody
B32: CE115HA000 W33D one-arm antibody (antibody, human IgG1, kappa, L234A L235A, N297A, name in Kabat numbering)
heavy: B1 heavy with W33D, E50Q
chain: B1 chain
light: B1 light
notes: one-arm antibody
B33: CE115HA000 W33F one-arm antibody (antibody, human IgG1, kappa, L234A L235A, N297A, name in Kabat numbering)
heavy: B1 heavy with W33F, E50Q
chain: B1 chain
light: B1 light
notes: one-arm antibody

What follows are binders tested against T1, CD3 epsilon homodimer protein (UniProt P07766 23-126) (assay: SPR Biacore T200, antibody over immobilised CD3e homodimer;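 further: CD3 epsilon homodimer amine-coupled on a CM4 chip, run at 25 °C in HBS-EP+, Z = bound amount of each single-residue H chain variant over that of the parent antibody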).
T1 construct: also called CD3 (CD3 epsilon)
T1 sequence (P07766 23-126): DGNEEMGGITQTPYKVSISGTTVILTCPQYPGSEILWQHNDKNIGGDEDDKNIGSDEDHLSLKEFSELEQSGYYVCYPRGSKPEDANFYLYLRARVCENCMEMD

Which “ratio of amounts bound (Z=Y/X vs CE115HA000)” value (“ratio of amounts bound” below) does the source give for B1 here?
The value was 0.26.

Which “ratio of amounts bound” value does the source give for B2 here?
Its value is 0.4.

How did the “ratio of amounts bound” value turn out when B3 was run?
Its value is 0.33.

Which “ratio of amounts bound” value does the source give for B4 here?
The value was 0.23.

How did the “ratio of amounts bound” value turn out when B5 was run?
Its value is 0.24.

For B6, which “ratio of amounts bound” value is on record?
Its value is 0.25.

B7 was tested. Which “ratio of amounts bound” value did it give?
Its value is 0.88.

With B8 as the binder, how does the “ratio of amounts bound” value read?
Its value is 0.9.

B9 was tested. Which “ratio of amounts bound” value did it give?
Its value is 0.8.

Which “ratio of amounts bound” value does the source give for B10 here?
The value was 0.86.

B11 was tested. Which “ratio of amounts bound” value did it give?
The value was 1.01.

Which “ratio of amounts bound” value does the source give for B12 here?
Its value is 0.96.

For B13, which “ratio of amounts bound” value is on record?
The value was 0.6.

Which “ratio of amounts bound” value does the source give for B14 here?
The value was 1.13.

With B15 as the binder, how does the “ratio of amounts bound” value read?
The value was 0.97.

For B16, which “ratio of amounts bound” value is on record?
Its value is 1.19.

For B17, which “ratio of amounts bound” value is on record?
Its value is 0.98.

With B18 as the binder, how does the “ratio of amounts bound” value read?
Its value is 1.04.

How did the “ratio of amounts bound” value turn out when B19 was run?
Its value is 0.93.

With B20 as the binder, how does the “ratio of amounts bound” value read?
The value was 1.11.

B21 was tested. Which “ratio of amounts bound” value did it give?
The value was 0.92.

Which “ratio of amounts bound” value does the source give for B22 here?
The value was 0.92.

For B23, which “ratio of amounts bound” value is on record?
Its value is 1.19.

With B24 as the binder, how does the “ratio of amounts bound” value read?
Its value is 1.05.

B25 was tested. Which “ratio of amounts bound” value did it give?
The value was 0.56.

With B26 as the binder, how does the “ratio of amounts bound” value read?
Its value is 0.91.

With B27 as the binder, how does the “ratio of amounts bound” value read?
The value was 0.98.

Which “ratio of amounts bound” value does the source give for B28 here?
The value was 0.61.

For B29, which “ratio of amounts bound” value is on record?
Its value is 1.32.

With B30 as the binder, how does the “ratio of amounts bound” value read?
The value was 1.

With B31 as the binder, how does the “ratio of amounts bound” value read?
Its value is 0.1.

With B32 as the binder, how does the “ratio of amounts bound” value read?
Its value is 0.1.

For B33, which “ratio of amounts bound” value is on record?
The value was 0.65.
